# In PMC8843702 (The Journal of Clinical Investigation, 2022):
# Columns and labels:
# SARS-CoV-2 S protein = SARS-CoV-2 S protein (SARS-CoV-2, Wuhan-Hu-1 reference, UniProt P0DTC2); test: SPR; details: both partners purified
# SARS-CoV-1 S protein = SARS-CoV-1 S protein (SARS-CoV-1, strain not named (P59594 …, UniProt P59594)); test: SPR; details: both partners purified
binder,measurement,setting,value
"P14-44 (antibody, V domains shown, also called P14-44 IgG; source: HEK293F, transfected, purified (Protein A)) VH: QVQLVQSGAEVKKPGASVKVSCKASGYIFTSYSMHWVRQAPGQGLEWMGTIKPSDDSTNYAQKFQGRVSMTRDTSTSTVYMELSSLRYEDTAVYYCAREARGYYDRSGYYHPGYFDYWGQGTLVTVSS VL: QSVLTQPASVSGSPGQSITISCTGTSSDVGGYNFVSWYQQHPGKAPKLMIYEVSDRPSGVSSRFSGSKSGNTASLTISGLQAEDEADYYCFSYTTSTTWVFGGGTKLTVL",Kd,SARS-CoV-2 S protein,0.55 nM
same,Kd,SARS-CoV-1 S protein,4.3 nM
